Reference: the nanobody polyreactivity screen of Harvey et al. (2022)

Assay: yeast display, Sf9 membrane polyspecificity reagent, FACS + sequencing; frameworks hold sequencing errors
Summary of the method: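 Nanobodies came from a synthetic yeast display library in Saccharomyces cerevisiae BJ5465, induced with galactose for 36–48 hours and stained for 1 hour at 4 °C with 10% biotinylated, detergent-solubilized Sf9 membrane reagent. Cells were enriched on streptavidin microbeads and then FACS-sorted, with low and high (top ~1%) gates set on anti-HA fluorescence for expression and streptavidin fluorescence for reagent binding. Each polyreactivity label reflects the gate a clone came from. Genes were amplified by colony PCR, sequenced by MiSeq 2 × 250 and filtered by CDR length.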

Sequence | polyreactivity (PSR sort gate)
QVQLVESGGGLVQAGGSLRLSCAASGRTLSGNAMGWYRPAPGKERELVATITSDGGDTYYADSVKGRFTISRDNPKNTVYLQMNILKPEDTAVYYCNADYAGPKYVGYTFRSFTMDYWGQGTQVTVSS | low polyreactivity
QVQLVESGGGLVQAGGSLRLSCAASGRTLSGYVMGWYRQAPGKERELVATISNGGSTYYADSVKGRFTISRDNAKNTVYLQMNSLKPEDTAVYYCNRYWYRKHSTDPPVRYRPVGYWGQGTQVTVSS | high polyreactivity
QVQLVESGGGLVQAGGSLRLSCAASGRTLSLYAMGWYRQAPGKEMELVANISNSGGSTDYADSVKGRFTISRDNAKNTVYLQMNSLKPEDTAVYYCAADANSWFTSYQVYGSEFDYWGQGTQVTVSS | low polyreactivity
QVQLVESGGGLVQAGGSLRLSCAASGRTLSVYAMGWYRQAPGKERELLAAITIRGGRTYYADSVKGRFTISRDNAKNTVYLQMNSLKPEDTAVYYCAAPPYVKMDYWGQGTQVTVSS | high polyreactivity
QVQLVESGGGLVQAGGSLRLSCAASGRTLSWYAMGWYRQAPGKEREFVAAITSSGASTYYADSVKGRFTISRDNAKNTVYLQMNSLKPEDTAVYYCAAKMRGYPRRRYDYCGQGTQVTVSS | high polyreactivity
QVQLVESGGGLVQAGGSLRLSCAASGRTLSYYAMGWYRQAPGKEREFVAAINWSGGSTYYADSVKGRFTISRDNAKNTVYLQMNSLKPEDTAVYYCAAYRPYSSSEGDYWGQGTQVTVSS | high polyreactivity
QVQLVESGGGLVQAGGSLRLSCAASGRTLVINVMGWYRQAPGKERELVAAISFRSGNTYYADSVKGRFTISRDNAKNTVYLQMNSLKPEDTAVYYCAAYTYRTSTTSSYYYWGQGTQVTVSS | high polyreactivity
QVQLVESGGGLVQAGGSLRLSCAASGRTLYGYAMGWYRQAPGKERELVARITGRDGSTDYADSVKGRFTISRDNAKNTVYLQMNSLKPEDTAVYYCNARVRFHWYRSDYWGQGTQVTVSS | high polyreactivity
QVQLVESGGGLVQAGGSLRLSCAASGRTLYIYAMGWYREAPGKERELVAAITNGGTTYADSVKGRFTISRDNAKNTVYLQINSLKPEDTAVYYCNADLRVSRITQYEYWGQGTQVTVSS | low polyreactivity
QVQLVESGGGLVQAGGSLRLSCAASGRTLYKYAMGWYRQAPGKERELVAAISRNGGSTYYADSVKGRFTISRDNAKNTVYLQMNSLKPEDTAVYYCNKRWGYQYLWVADYDYWGQGTQVTVSS | high polyreactivity
QVQLVESGGGLVQAGGSLRLSCAASGRTLYLNAMRWNRQPQRKERELVAISSGGSTYYADSVKGRFTISRDNAKNTVYLQMNSLKPEDTAVYYCNADEHYHFGYVFWYAYDYWGQGTQVTVSS | low polyreactivity
QVQLVESGGGLVQAGGSLRLSCAASGRTLYTNAMGWYRQAPGKERELVAAITSGASTNYADSVKGRFTISRDNAKNSVYLQMNSLKPEDTSVYYCASRTYHLWNARRYDYWGQGTQVTVSS | low polyreactivity
QVQLVESGGGLVQAGGSLRLSCAASGRTLYTNAMGWYRQPPGKEREFVASISGSGGSTYYADSVKGRFTISRDNAKNTVDLQMNRLKQEDTAVYYCAADPAQTVEFGKYDYWGQGTQVTVSS | low polyreactivity
QVQLVESGGGLVQAGGSLRLSCAASGRTMAVYAMGWDRQAPGKEREVVAAISWSGGTTYYADSVKGRFTISRDNAKNTVYLQMNSLKAEDTAVYYCAADSYTEVDYWGQGTQVTVSS | low polyreactivity
QVQLVESGGGLVQAGGSLRLSCAASGRTRGVNAMGWYSQAPGKERELVAAITRRGGSTSYADSVKGRFTISRDNEKNTVYLHMNSLKPEDTAVYYCAAGVIREKYYIWSDYEYDYWGQGTQVTVSS | low polyreactivity
QVQLVESGGGLVQAGGSLRLSCAASGRTSDGYARGWYRQAPGKERELVAGITEGGGDTYYADSVKGRFTISRDNAKNTVYLQMNSLKPEDTAVYYCNAVEGSRLPYDYWGQGTQVTVSS | low polyreactivity

Sequence | polyreactivity (PSR sort gate)
QVQLVESGGGLVQAGGSLRLSCAASGRTSGNYAKGWNRQAPGKERELVAAIRYSGSSTFYAESVKGRFTISRDSAKNSVYLQMNSLKPEDTGVYYCARDIRRKGFRYDYWGQGTQVTVSS | high polyreactivity
QVQLVESGGGLVQAGGSLRLSCAASGRTSLAYAMGWYRKATGKERELVAGITSGGNTNYADSVKGRFTISCDNAKNSVYLQMNRLKPEDTAVYYCNKKKRWQWYSESVLDELGFYSWGQGTQVTVSS | low polyreactivity
QVQLVESGGGLVQAGGSLRLSCAASGRTSLAYAMGWYRQAPGKERELVAAISRTGSTYYADSVKGRFTISRDNAKNTVYLQMNSLKPEDTAVYYCNAKRRPYSVRSDYWGQGTQVTVSS | high polyreactivity
QVQLVESGGGLVQAGGSLRLSCAASGRTSLRNAMGWYRQAPGKEWELVATISQSGGRTHYADSVKGRFTISRENAKNTVYLQMNSLKPEDTAVYYCGAVARFSQYLYNYWGQGTQVTVSS | low polyreactivity
QVQLVESGGGLVQAGGSLRLSCAASGRTSLRYAMGWYRLAPGKDRELVAAIRYGGGSTRYADSVKGRFTISRDNAKNTVYLQMKSLKPEDTAVSYCAARYFPRIQYGRKGYDYWGQGTQVTVSA | low polyreactivity
QVQLVESGGGLVQAGGSLRLSCAASGRTSNFNAMGWYRQATGKERELVAAINSDGSTYYADSVKGRFTISRDNAKNTVYLQMNSLKPEDTAVDYCAVRKRPHGYLAFGYWGQGTQVTVSS | low polyreactivity
QVQLVESGGGLVQAGGSLRLSCAASGRTSNGYAMGWYRQAPGKERELVAAYADSVKGRFTISRDNAKNTVYLQMNSLKPEDTAVYYCNADYYPVSRVGYVYWAYYYWGQGTQVTVSS | low polyreactivity
QVQLVESGGGLVQAGGSLRLSCAASGRTSPYYTMGWYRQAPGKERELVAASGSRTDYADSVKGRFTISRDNAKNTVYLQMNSLKPEDTAVYYCNAYRYRQSSSDKYGYWGQGTQVTVSS | low polyreactivity
QVQLVESGGGLVQAGGSLRLSCAASGRTSRNNVMGSYRQAPGKERELVAAITKRTDRTYYADSVKGRFTISRDNAKNTVYLQMNSLKPEDTAVYYCAADLSLSTGGRAFPTYGYWGQGTQVTVSS | high polyreactivity
QVQLVESGGGLVQAGGSLRLSCAASGRTSRRNAMGWYRQAPGKERELVAAISGSGGRTNSADSVKGRFTISRDNAQNTVYLQMNSLKPEDTAVYYCNVLTRYYLGYDYWGQGTQVTVSS | high polyreactivity
QVQLVESGGGLVQAGGSLRLSCAASGRTSRVYAMGWYRQAPGKERELVAAITWRGGNTYYADSVKGRFTISRDNAKNTVYLQMNSLKPEDTAVYYCAADKYTHKPHGDYWGQGTQVTVSS | high polyreactivity
QVQLVESGGGLVQAGGSLRLSCAASGRTSSIYTMGWYRQAPGKERELVAAIRGRGGNTYYADSVKGRFTISRDYAKNTVYLLMNSLKPEDTAVYYCNAKPQGVGLYRYEYWGQGTQVTVSS | high polyreactivity
QVQLVESGGGLVQAGGSLRLSCAASGRTSVGYVMGWYRQAPGKERELVASITSGGSTYYADSVKGRFTISRDNAKNTVYLQMNSLKPEDTAVYYCAAQLKSHRTYGHDYWGQGTQVTVSS | low polyreactivity
QVQLVESGGGLVQAGGSLRLSCAASGRTSVIYAMGWYRQAPGKERELVASIRRGGSTSYADSVKGRFTISRDNAKNTVYLQMNSLIPEDTAVYYCAATLVRRARSGPMGYWGQGTQVTVSS | high polyreactivity
QVQLVESGGGLVQAGGSLRLSCAASGRTSYVYAMGWYRQAPGKERELVAAITSSGGSTYYADSVKGRFTISRDNAKNTVYLQMNSLKPEDTAVYYCAAETYPVWGVAFYYWGQGTQVTVSS | high polyreactivity
